Experimental data as given in the supplement of paper PMC10567573.
± gives the standard deviation.

Assay: protein stability index of a GFP-peptide fusion (GPS, HEK-293T) (PSI 1-6); higher = more stable
[1] = treatment: DMSO, c terminus: a fixed tail appended
[2] = treatment: MLN4924 1 uM, 8 h, c terminus: a fixed tail appended
[3] = treatment: DMSO, c terminus: native
[4] = treatment: MLN4924 1 uM, 8 h, c terminus: native
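Further: 24-mer peptide tiles fused after GFP, lentivirally expressed, FACS-sorted into six equal bins by GFP/DsRed ratio, decoded by Illumina sequencing, PSI is the read-weighted mean bin number.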

Sequence	protein stability index [1]	protein stability index [2]	protein stability index [3]	protein stability index [4]
ISHQGDYAVLAAEPELQVGIDIMK [AASDHPPT]	3.42 ± 0.21	3.52 ± 0.3	–	–
ANDGDYWRLLNPGEYVVTAKAEGF [CPXM2]	2.81 ± 0.35	2.87 ± 0.081	–	–
ASLNHLDSHILLCLMGLAETPGCA [DCAF4]	3.14 ± 0.58	2.82 ± 0.34	–	–
FTDFNATSALFWEQHDLVYGDWTS [CLPTM1]	2.29 ± 0.67	2.53 ± 0.27	–	–
AGTAGVGETGSGDQAGGEGKHITV [MYOZ1]	5.51 ± 0.14	5.05 ± 0.71	–	–
CEYETRLPGNHSTSQEIFRQRFRH [ZNF232]	3.48 ± 0.25	3.4 ± 0.17	–	–
KITKVMDVRLDREHRVAGIFPRLS [CLPTM1]	2.69 ± 0.17	2.7 ± 0.36	–	–
NPVYYGPSDFFIGAVIEVFGHRFI [EFHC1]	3.04 ± 0.7	2.44 ± 0.79	–	–
GSIGVWHYICPRLGGIGFSSCIVC [SLC6A17]	2.58 ± 0.054	2.41 ± 1.2	–	–
RMSEDKPQDYKKRLSVELTSSLFR [CTNNB1]	3.4 ± 0.1	3.42 ± 0.25	–	–
FFVITMIKIVLINSFGAILQGSLF [SLC29A1]	3.36 ± 0.093	2.99 ± 0.12	–	–
VGRLKRERSMSENAVRQNGQLVRN [MFF]	5 ± 0.16	4.94 ± 0.078	–	–
KRYGLGAHRGRLNIQAGINENDFY [CPXM2]	2.45 ± 0.44	2.61 ± 0.28	–	–
ENLAHHLEIDSGVITLDPQTASRS [TRIM15]	4.96 ± 0.11	4.97 ± 0.27	–	–
CPVPAHRRGSWRLPYTDGLSWELL [CTBP1-DT]	2.49 ± 0.34	2.59 ± 0.31	–	–
ASQSPKKPPAKDPLADLNIKDFL [SNAP91]	–	–	4.45 ± 0.29	4.58 ± 0.34
CDKHSKLFEEPEDPSNRSFFSEII [PPP2R2C]	3.36 ± 0.17	3.57 ± 0.2	–	–
INLPVEEFNELLSKYQLSEAQLSL [NFE2L1]	2.47 ± 0.44	2.51 ± 0.21	–	–
CQPRNLDKERAVLLQRRKRENMSD [KMT2E]	4.32 ± 0.13	4.29 ± 0.12	–	–
VCESMKEQLLVLVEWAKYIPAFCE [HNF4A]	2.51 ± 0.38	2.34 ± 0.38	–	–
VKEDDKLIFHRHPVAQSTDAIRGK [SPSB1]	4.56 ± 0.25	4.69 ± 0.25	–	–
EPKLHTPMYFFLGNLSVLDVGCIS [OR3A1]	2.7 ± 0.83	2.95 ± 0.71	–	–

Sequence	protein stability index [1]	protein stability index [2]	protein stability index [3]	protein stability index [4]
TSFALERNLRTQQEIEDKMKGFSF [C8orf76]	3.54 ± 0.19	3.53 ± 0.2	–	–
SVRGYMMSKQRERQLRRRALHPER [RETREG3]	3.43 ± 0.047	3.73 ± 0.31	–	–
IPVLMALSWFILHARYRVIHFIAV [SLC35F2]	3.09 ± 0.43	3.25 ± 0.093	–	–
LEQIMESVKSKIGELEDESLNRAC [CEP70]	4.47 ± 0.35	4.46 ± 0.36	–	–
LPATLVMTVPATAIYFTAYDQLKA [SLC25A39]	3.02 ± 0.33	3 ± 0.51	–	–
FVLLCFAIGALLVCYHYYADWFMS [TMEM40]	2.16 ± 0.31	2.19 ± 0.39	–	–
KIASLLGLLSKTAGFSPDCIMDDA [INTS4]	2.57 ± 0.58	2.19 ± 0.55	–	–
EKWAEGGGHSRERADEPQWSLYPS [CHGB]	4.28 ± 0.22	4.24 ± 0.064	–	–
YLPSTEFSVSSTSRRIYRCRNCIN [IQUB]	2.62 ± 0.31	3.61 ± 0.38	–	–
QEWSFLPSITRKRRYVASVSLHDR [KLHL12]	2.41 ± 0.11	2.51 ± 0.33	–	–
RNLQDLARIYIRRTLRNFINDEMQ [PCMTD1]	2.07 ± 0.18	2.49 ± 0.69	–	–
VRLDRVRGGRQKYKRRIDAENSPY [ESRRG]	3.81 ± 0.25	3.75 ± 0.052	–	–
LPAGPGEEWERRPQEPRPPKRATK [CPXM2]	5.04 ± 0.53	5.44 ± 0.28	–	–
HGPISEVLLIKDRTSKSRGFAFIT [RBMY1A1]	2.83 ± 0.36	2.66 ± 0.91	–	–
GSRAGASSFSDPFFVVETLCIIWF [KCNA3]	3.04 ± 0.93	2.53 ± 0.75	–	–
YSLQMKRVIACQKTAHDSNVLHVA [WDR41]	2.23 ± 0.14	2.38 ± 0.32	–	–
LRNCKTYQARKPLWFYNTSLKFFL [RHOBTB3]	2.68 ± 0.55	2.84 ± 0.87	–	–
EKPYGCIDCGKAFSQKSCLVAHQR [ZNF649]	2.81 ± 0.07	2.99 ± 0.28	–	–
HRLMTDARRRVCHTEDFQKEEGTV [CPXM2]	4.76 ± 0.26	4.8 ± 0.24	–	–
KDYYPINESLASLPLRVSFCPLSL [CLPTM1]	2.16 ± 0.28	2.15 ± 0.096	–	–
PAFRFLTKMWHPNIYETGDVCISI [CDC34]	3.2 ± 0.42	3.04 ± 0.59	–	–
LSCTLVPRSGEQAEGSPGGPGDSQ [CDKN1A]	5.03 ± 0.41	5.05 ± 0.13	–	–

Sequence	protein stability index [1]	protein stability index [2]	protein stability index [3]	protein stability index [4]
TTTRHKRTANPSKTIDLGAAAHYT [CLINT1]	3.94 ± 0.2	4.06 ± 0.16	–	–
KSVQCGTWTKHAEGGIFTSPNYPS [NETO1]	2.88 ± 0.19	2.89 ± 0.24	–	–
WICQRSTVASMMHRQETVDCLKKF [CAMK2D]	2.67 ± 0.15	2.43 ± 0.64	–	–
DGSKSEDELDQASTPTDVRDIDL [CCND2]	–	–	4.41 ± 0.26	4.71 ± 0.33
LQSAAGKDAAKQIAWIKDKLLHIY [PDS5B]	2.59 ± 0.39	3.09 ± 0.61	–	–
IDNSSEIEDEDQILENSSQKENVF [FAN1]	5.39 ± 0.28	5.2 ± 0.56	–	–
APVPTHSTVSELSRSPVATATSC [DUSP5]	–	–	2.72 ± 0.17	2.86 ± 0.13
GHVEMVNLLLAKGANINAFDKKDR [ANKRD44]	3.41 ± 0.19	3.38 ± 0.3	–	–
QTSSSTFGGGSTRGGSLLAGGGGF [KRT15]	3.57 ± 0.17	3.7 ± 0.23	–	–
LGNLVEGMDFHRFYFENALSKSNK [CAMK2D]	2.89 ± 0.2	3.23 ± 0.066	–	–
RVSDVQKVLQGGEQEIQFEDFTNT [PKD2L1]	4.8 ± 0.6	4.85 ± 0.36	–	–
GGKGHHLPSENLGKEPLDPDPSHS [TOR1AIP2]	5.456 ± 0.051	5.15 ± 0.14	–	–
PHGQYGGHHQGMPGYLPGAMPPYG [ZNF207]	2.93 ± 0.33	3.09 ± 0.41	–	–
RQLTKPRPVILDPADPTGNLGGGD [OAS1]	4.65 ± 0.23	4.48 ± 0.31	–	–
KAGFTASPFTNLLNGSSQPTTRNY [CDC14A]	3.38 ± 0.19	3.39 ± 0.18	–	–
GEHKDRIERQWGNLLGEGQHKCDE [ZSCAN9]	4.88 ± 0.4	4.93 ± 0.14	–	–
WMQVASLNEKRTFFHLSALKGYLY [KLHL13]	2.76 ± 0.57	2.58 ± 0.36	–	–
KVVEAHKIVLCAVSHVFMLLFNVK [RHOBTB3]	2.81 ± 0.64	3.07 ± 0.46	–	–
RLWSLSYTKLPSSLQSTGKCLLYC [SLC25A39]	2.78 ± 0.62	2.73 ± 0.52	–	–
RIATETDQIGSEIIEELGEQRDQL [VTI1B]	5.38 ± 0.2	5.37 ± 0.14	–	–
